Columns and labels:
Type in all cases: cell-based
[1] = test system: Monocyte derived dendritic cells (mDC); assay: Cytokine production in mDC-T cell co-culture (MSD); settings: for Cytokine Production IFNg / Cytokine Production IL12 / Cytokine Production TNFa: mDC-T cell co-culture 2 days
Description: (§1) In order to engage dendritic cells in an immune response, dendritic cells must be converted to a functional state by an antigen-specific CD4+ helper T cell. Activation of the dendritic cells may be followed by the activation of CD8+ T cells by the dendritic cells, a process referred to as dendritic cell licensing. Engagement of the CD40L expressed on the CD4+ cells with the CD40 on the dendritic cells can result in (i) dendritic cell stimulation-measured by expression of co-stimulatory and MHC molecules (ii) proinflammatory cytokine release (e.g. IL12, TNFα and INFγ) (iii) epitope spreading. To measure the effect of CD40L expression that is tuned by the biocircuits of the present disclosure, CD4+ T cells or Jurkat cells expressing any of the CD40L constructs described herein were co-cultured with dendritic cells.
(§2) Dendritic cell function in response to co-culture with T cells expressing CD40L was evaluated in the presence of ligand or corresponding vehicle control. Monocyte derived dendritic cells (mDC) (CD14+) were isolated from fresh blood and cultured for 5 days with IL-4 (7.5 ng/mL) and GM-CSF (20 ng/mL). The mDCs were frozen down after the 5 day culture. T cells were transduced with OT-001662 and expanded for 9 days before being frozen down. mDCs and T cells were thawed and co-cultured 1:10 DC: T cell ratio (i.e. 5×10^4 DCs: 5×10^5 T cells). mDC and T cells were co-cultured for 2 days before cells were collected for flow cytometry and supernatants were collected for cytokine analysis. For evaluation of regulated constructs, ligand (various doses of TMP) was added at the time initiating the co-culture and was kept in the co-culture for 2 days. Cytokines were analyzed by MSD after a single freeze thaw cycle. All cells were cultured in complete RPMI with 10% FBS during the course of the experiment. SR indicates stabilization ratio.

[2] = test system: T cells (CD4+ and CD8+); assay: Regulation of CD40L in T cells by different drug responsive domains
[3] = test system: T cells co-cultured with monocyte derived dendritic cells (mDC); assay: CD40L levels in T cells in mDC co-culture (FACS); settings: for % CD40L+ / CD40L MFI: mDC co-culture 2 days; for SR (based on %) / SR (based on MFI): stabilization ratio
Description: as §1, §2

[4] = test system: CD8 positive T cells; assay: CD40L MFI by FACS in transduced CD8 positive T cells
Experimental: Regulation of ecDHFR (R12Y, Y100I) DRD based construct OT-001662 and ER (N413D) DRD based construct OT-001666 were tested in CD8 positive T cells. For OT-001662, expressing cells, ligand was added 6 days after viral transduction at a dose of 50 μM TMP. OT-001666 expressing cells were treated with 0.5 μM Bazedoxifene or vehicle control, 5 days after transduction. Approximately 15-30k cells were analyzed per sample by FACS. All samples were compared to empty vector control as well as the constitutively expressed construct, OT-001661. Table 11 provides the mean fluorescence intensities (MFIs) obtained with each sample.

[5] = +Ligand (50 μM TMP OT-001662; 0.5 μM Bazedoxifene OT-001666)

B1: OT-001662: CD40L construct with ecDHFR (M1del, R12Y, Y100I) DRD, ligand TMP (protein)
chain: MSGISLIAALAVDYVIGMENAMPWNLPADLAWFKRNTLNKPVIMGRHTWESIGRPLPGRKNIILSSQPGTDDRVTWVKSVDEAIAACGDVPEIMVIGGGRVIEQFLPKAQKLYLTHIDAEVEGDTHFPDYEPDDWESVFSEFHDADAQNSHSYCFEILERRHMIETYNQTSPRSAATGLPISMKIFMYLLTVFLITQMIGSALFAVYLHRRLDKIEDERNLHEDFVFMKTIQRCNTGERSLSLLNCEEIKSQFEGFVKDIMLNKEETKKENSFEMQKGDQNPQIAAHVISEASSKTTSVLQWAEKGYYTMSNNLVTLENGKQLTVKRQGLYYIYAQVTFCSNREASSQAPFIASLCLKSPGRFERILLRAANTHSSAKPCGQQSIHLGGVFELQPGASVFVNVTDPSQVSHGTGFTSFGLLKL
For B1, the “IL12, TMP dose response” value ([1]; mDC-T cell co-culture) was “dose responsive increases”, the “TNFα, TMP dose response” value ([1]; mDC-T cell co-culture) was “dose responsive increases” and the “Cytokine Production IFNg” value ([1]; DMSO) was 3791.2 pg/mL. The “Cytokine Production IL12” value ([1]; DMSO) was 0.2535 pg/mL, the “Cytokine Production TNFa” value ([1]; DMSO) was 82.2712 pg/mL and the “Cytokine Production IFNg” value ([1]; TMP (0.1 μM)) was 7432.13 pg/mL. For the same molecule, the “Cytokine Production IL12” value ([1]; TMP (0.1 μM)) was 0.0705 pg/mL, the “Cytokine Production TNFa” value ([1]; TMP (0.1 μM)) was 130.9627 pg/mL and the “Cytokine Production IFNg” value ([1]; TMP (0.5 μM)) was 3587.14 pg/mL. The “Cytokine Production TNFa” value ([1]; TMP (0.5 μM)) was 83.86 pg/mL, the “Cytokine Production IFNg” value ([1]; TMP (2 μM)) was 16375.2 pg/mL and the “Cytokine Production IL12” value ([1]; TMP (2 μM)) was 19.372 pg/mL. For the same molecule, the “Cytokine Production TNFa” value ([1]; TMP (2 μM)) was 248.7836 pg/mL, the “Cytokine Production IFNg” value ([1]; TMP (10 μM)) was 13539.7 pg/mL and the “Cytokine Production IL12” value ([1]; TMP (10 μM)) was 59.254 pg/mL. The “Cytokine Production TNFa” value ([1]; TMP (10 μM)) was 251.2844 pg/mL, the “levels of IFNγ” value ([1]; mDC-T cell co-culture, 10 μM TMP) was “comparable to the levels observed with the constitutive construct OT-001661” and the “IFNγ, TMP dose response” value ([1]; mDC-T cell co-culture, lower doses of TMP) was “dose responsive increase”. The CD40L positive ([2]; All Cells, 10 uM TMP) was 89.7%, the MFI ([2]; All Cells, 10 uM TMP) was 2122 and the CD40L positive ([2]; All Cells, DMSO) was 7.6%. It also gave an MFI ([2]; All Cells, DMSO) of 140, a CD40L positive ([2]; CD4+, 10 uM TMP) of 94.4% and an MFI ([2]; CD4+, 10 uM TMP) of 2608. It also gave a CD40L positive ([2]; CD4+, DMSO) of 8.8%, an MFI ([2]; CD4+, DMSO) of 152 and a CD40L positive ([2]; CD8+, 10 uM TMP) of 74.9%. For the same molecule, the MFI ([2]; CD8+, 10 uM TMP) was 1070, the CD40L positive ([2]; CD8+, DMSO) was 91.8% and the MFI ([2]; CD8+, DMSO) was 2.1. For the same molecule, the “% CD40L+” value ([3]; CD4+, DMSO) was 3.71%, the “CD40L MFI” value ([3]; CD4+, DMSO) was 63.8 and the “% CD40L+” value ([3]; CD4+, TMP (0.1 μM)) was 4.32%. For the same molecule, the “CD40L MFI” value ([3]; CD4+, TMP (0.1 μM)) was 69.8, the “% CD40L+” value ([3]; CD4+, TMP (0.5 μM)) was 3.34% and the “CD40L MFI” value ([3]; CD4+, TMP (0.5 μM)) was 61.1. For the same molecule, the “% CD40L+” value ([3]; CD4+, TMP (2 μM)) was 78%, the “CD40L MFI” value ([3]; CD4+, TMP (2 μM)) was 691 and the “% CD40L+” value ([3]; CD4+, TMP (10 μM)) was 84.1%. The “CD40L MFI” value ([3]; CD4+, TMP (10 μM)) was 1379, the “SR (based on %)” value ([3]; CD4+, TMP (0.1 μM)) was 1.16 and the “SR (based on MFI)” value ([3]; CD4+, TMP (0.1 μM)) was 1.09. For the same molecule, the “SR (based on %)” value ([3]; CD4+, TMP (0.5 μM)) was 0.90, the “SR (based on MFI)” value ([3]; CD4+, TMP (0.5 μM)) was 0.96 and the “SR (based on %)” value ([3]; CD4+, TMP (2 μM)) was 21.02. The “SR (based on MFI)” value ([3]; CD4+, TMP (2 μM)) was 10.83, the “SR (based on %)” value ([3]; CD4+, TMP (10 μM)) was 22.67 and the “SR (based on MFI)” value ([3]; CD4+, TMP (10 μM)) was 21.61. For the same molecule, the “% CD40L+” value ([3]; CD8+, DMSO) was 0.47%, the “CD40L MFI” value ([3]; CD8+, DMSO) was 57.8 and the “% CD40L+” value ([3]; CD8+, TMP (0.1 μM)) was 0.69%. The “CD40L MFI” value ([3]; CD8+, TMP (0.1 μM)) was 61.5, the “% CD40L+” value ([3]; CD8+, TMP (0.5 μM)) was 0.57% and the “CD40L MFI” value ([3]; CD8+, TMP (0.5 μM)) was 54.5. For the same molecule, the “% CD40L+” value ([3]; CD8+, TMP (2 μM)) was 57.8%, the “CD40L MFI” value ([3]; CD8+, TMP (2 μM)) was 419 and the “% CD40L+” value ([3]; CD8+, TMP (10 μM)) was 74.9%. For the same molecule, the “CD40L MFI” value ([3]; CD8+, TMP (10 μM)) was 951, the “SR (based on %)” value ([3]; CD8+, TMP (0.1 μM)) was 1.47 and the “SR (based on MFI)” value ([3]; CD8+, TMP (0.1 μM)) was 1.06. For the same molecule, the “SR (based on %)” value ([3]; CD8+, TMP (0.5 μM)) was 1.21, the “SR (based on MFI)” value ([3]; CD8+, TMP (0.5 μM)) was 0.94 and the “SR (based on %)” value ([3]; CD8+, TMP (2 μM)) was 122.98. The “SR (based on MFI)” value ([3]; CD8+, TMP (2 μM)) was 7.25, the “SR (based on %)” value ([3]; CD8+, TMP (10 μM)) was 159.36 and the “SR (based on MFI)” value ([3]; CD8+, TMP (10 μM)) was 16.45. For the same molecule, the “Ligand dependent regulation of CD40L” value ([3]; mDC-T cell co-culture 2 days, various doses of TMP, CD4 and CD8+ cells) was “Ligand dependent regulation of CD40L was evident”, the “Expression of CD40L in the presence of ligand, comparison of constructs” value [4] was “higher than the ER DRD based construct” and the “CD40L MFI” value [4, 5] was 283. For the same molecule, the “CD40L MFI” value ([4]; Vehicle) was 29.0.

B2: OT-001666 (Met; ER (305-549 of WT, L384M, N413D, M421G, G521R, Y537S); Histidine; CD40L; stop) (ligand)
chain: MSLALSLTADQMVSALLDAEPPILYSEYDPTRPFSEASMMGLLTNLADRELVHMINWAKRVPGFVDLTLHDQVHLLECAWMEILMIGLVWRSMEHPGKLLFAPNLLLDRDQGKCVEGGVEIFDMLLATSSRFRMMNLQGEEFVCLKSIILLNSGVYTFLSSTLKSLEEKDHIHRVLDKITDTLIHLMAKAGLTLQQQHQRLAQLLLILSHIRHMSNKRMEHLYSMKCKNVVPLSDLLLEMLDAHRLHMIETYNQTSPRSAATGLPISMKIFMYLLTVFLITQMIGSALFAVYLHRRLDKIEDERNLHEDFVFMKTIQRCNTGERSLSLLNCEEIKSQFEGFVKDIMLNKEETKKENSFEMQKGDQNPQIAAHVISEASSKTTSVLQWAEKGYYTMSNNLVTLENGKQLTVKRQGLYYIYAQVTFCSNREASSQAPFIASLCLKSPGRFERILLRAANTHSSAKPCGQQSIHLGGVFELQPGASVFVNVTDPSQVSHGTGFTSFGLLKL
With B2 the “CD40L MFI” value [4, 5] was 33.1 and the “CD40L MFI” value ([4]; Vehicle) was 35.4.
